Data from the supplement of paper PMC10065799, “High-throughput profiling of sequence recognition by tyrosine kinases and SH2 domains using bacterial peptide display” (eLife, 2023).

Assays:
[1] = biological target: SHP2-C SH2; assay: SH2 binding enrichment of the phosphorylated peptide, bacterial display (enrichment ratio); higher = better substrate or ligand; peptides without Tyr show the background
[2] = biological target: Grb2 SH2 (UniProt P62993); assay: as above
[3] = biological target: c-Src SH2; assay: as above
[4] = system: c-Src; assay: phosphorylation enrichment, bacterial display (enrichment ratio); higher = better substrate or ligand; peptides without Tyr show the background
[5] = biological target: MERTK (UniProt Q12866); assay: as above
Sequence of MERTK (Q12866 whole entry, looked up): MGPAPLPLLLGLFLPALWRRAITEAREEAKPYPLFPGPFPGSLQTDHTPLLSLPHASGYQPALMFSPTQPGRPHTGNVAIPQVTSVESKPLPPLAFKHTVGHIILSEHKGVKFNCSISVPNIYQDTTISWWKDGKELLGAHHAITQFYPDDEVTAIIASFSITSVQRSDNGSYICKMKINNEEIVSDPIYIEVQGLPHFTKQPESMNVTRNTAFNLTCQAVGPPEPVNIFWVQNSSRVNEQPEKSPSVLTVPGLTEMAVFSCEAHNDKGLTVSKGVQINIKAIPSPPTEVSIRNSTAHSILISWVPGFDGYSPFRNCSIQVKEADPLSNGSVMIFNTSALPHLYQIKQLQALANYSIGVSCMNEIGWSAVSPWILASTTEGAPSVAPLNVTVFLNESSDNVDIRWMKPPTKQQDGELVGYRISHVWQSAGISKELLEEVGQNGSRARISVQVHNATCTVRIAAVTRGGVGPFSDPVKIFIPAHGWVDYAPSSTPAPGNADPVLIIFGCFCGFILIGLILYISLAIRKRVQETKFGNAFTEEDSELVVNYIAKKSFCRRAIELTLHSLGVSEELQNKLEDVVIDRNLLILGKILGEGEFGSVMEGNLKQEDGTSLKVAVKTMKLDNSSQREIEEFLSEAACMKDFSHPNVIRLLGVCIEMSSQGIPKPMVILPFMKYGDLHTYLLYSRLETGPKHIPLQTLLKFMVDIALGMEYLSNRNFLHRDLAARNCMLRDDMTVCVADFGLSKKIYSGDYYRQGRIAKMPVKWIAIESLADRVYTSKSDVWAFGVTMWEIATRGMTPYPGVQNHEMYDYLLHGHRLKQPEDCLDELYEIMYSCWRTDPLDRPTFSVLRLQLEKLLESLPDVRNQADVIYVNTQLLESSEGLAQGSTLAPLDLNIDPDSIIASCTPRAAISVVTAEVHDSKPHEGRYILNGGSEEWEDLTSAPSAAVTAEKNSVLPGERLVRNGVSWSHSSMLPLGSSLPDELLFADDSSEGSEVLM

[6] = biological target: EPHB2 (UniProt P29323); assay: as above
[7] = biological target: FGFR3 (UniProt P22607); assay: as above
Sequence of FGFR3 (P22607 whole entry, looked up): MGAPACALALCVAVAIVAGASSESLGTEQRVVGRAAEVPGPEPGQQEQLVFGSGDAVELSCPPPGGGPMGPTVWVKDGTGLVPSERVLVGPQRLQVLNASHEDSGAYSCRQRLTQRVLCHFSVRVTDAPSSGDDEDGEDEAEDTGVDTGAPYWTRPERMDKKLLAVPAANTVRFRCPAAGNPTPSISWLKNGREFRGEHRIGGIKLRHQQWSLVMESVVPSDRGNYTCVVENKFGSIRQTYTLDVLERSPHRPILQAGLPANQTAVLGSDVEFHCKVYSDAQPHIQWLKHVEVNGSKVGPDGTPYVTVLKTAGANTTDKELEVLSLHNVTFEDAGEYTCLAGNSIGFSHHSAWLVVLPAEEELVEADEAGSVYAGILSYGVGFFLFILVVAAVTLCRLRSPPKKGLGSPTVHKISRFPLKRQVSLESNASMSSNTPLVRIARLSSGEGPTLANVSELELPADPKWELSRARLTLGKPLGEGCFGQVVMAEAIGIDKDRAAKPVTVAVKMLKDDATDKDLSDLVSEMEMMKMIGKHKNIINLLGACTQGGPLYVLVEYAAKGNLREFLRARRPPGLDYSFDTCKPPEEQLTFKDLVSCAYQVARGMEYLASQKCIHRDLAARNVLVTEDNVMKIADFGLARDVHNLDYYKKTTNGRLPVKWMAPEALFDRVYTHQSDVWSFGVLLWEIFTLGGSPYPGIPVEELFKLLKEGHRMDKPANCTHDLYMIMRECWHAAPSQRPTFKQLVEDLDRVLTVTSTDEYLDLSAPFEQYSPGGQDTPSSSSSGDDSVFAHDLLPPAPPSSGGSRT

[8] = system: Fer (mouse); assay: as above
[9] = biological target: Fes (UniProt P07332); assay: as above
[10] = system: AncSZ; assay: as above
[11] = system: c-Abl (mouse); assay: as above
[12] = biological target: EPHB1 (UniProt P54762); assay: as above
[13] = biological target: Fyn (UniProt P06241); assay: as above
Sequence of Fyn (P06241 whole entry, looked up): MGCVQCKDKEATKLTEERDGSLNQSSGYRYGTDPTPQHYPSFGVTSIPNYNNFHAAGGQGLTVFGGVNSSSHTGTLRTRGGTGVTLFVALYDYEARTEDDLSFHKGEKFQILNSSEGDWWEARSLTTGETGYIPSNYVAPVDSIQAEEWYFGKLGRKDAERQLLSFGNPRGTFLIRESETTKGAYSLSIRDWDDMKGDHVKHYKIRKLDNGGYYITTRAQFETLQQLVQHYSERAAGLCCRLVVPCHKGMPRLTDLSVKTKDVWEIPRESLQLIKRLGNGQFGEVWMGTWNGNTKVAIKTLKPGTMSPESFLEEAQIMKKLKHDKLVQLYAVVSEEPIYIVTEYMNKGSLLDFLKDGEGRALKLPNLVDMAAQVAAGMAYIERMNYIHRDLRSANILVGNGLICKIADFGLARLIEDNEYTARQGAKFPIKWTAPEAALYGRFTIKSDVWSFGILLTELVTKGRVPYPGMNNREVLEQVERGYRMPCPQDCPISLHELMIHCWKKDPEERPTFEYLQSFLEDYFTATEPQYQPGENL

[14] = biological target: Hck (UniProt P08631); assay: as above
Sequence of Hck (P08631 whole entry, looked up): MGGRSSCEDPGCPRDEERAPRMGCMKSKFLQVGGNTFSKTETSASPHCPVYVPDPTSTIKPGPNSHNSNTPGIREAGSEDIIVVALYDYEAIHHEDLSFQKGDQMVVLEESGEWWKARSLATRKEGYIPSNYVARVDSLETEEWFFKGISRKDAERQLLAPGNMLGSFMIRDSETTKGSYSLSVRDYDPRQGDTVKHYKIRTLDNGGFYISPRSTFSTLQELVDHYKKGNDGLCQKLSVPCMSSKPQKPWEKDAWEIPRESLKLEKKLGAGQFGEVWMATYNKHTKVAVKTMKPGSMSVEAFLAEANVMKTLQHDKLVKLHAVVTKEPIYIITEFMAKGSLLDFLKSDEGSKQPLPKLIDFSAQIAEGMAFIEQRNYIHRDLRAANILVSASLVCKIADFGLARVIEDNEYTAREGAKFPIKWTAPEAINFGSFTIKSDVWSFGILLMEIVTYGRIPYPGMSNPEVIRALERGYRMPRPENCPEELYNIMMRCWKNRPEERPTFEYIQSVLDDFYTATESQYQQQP

[15] = biological target: Jak2 (UniProt O60674); assay: as above
Sequence of Jak2 (O60674 whole entry, looked up): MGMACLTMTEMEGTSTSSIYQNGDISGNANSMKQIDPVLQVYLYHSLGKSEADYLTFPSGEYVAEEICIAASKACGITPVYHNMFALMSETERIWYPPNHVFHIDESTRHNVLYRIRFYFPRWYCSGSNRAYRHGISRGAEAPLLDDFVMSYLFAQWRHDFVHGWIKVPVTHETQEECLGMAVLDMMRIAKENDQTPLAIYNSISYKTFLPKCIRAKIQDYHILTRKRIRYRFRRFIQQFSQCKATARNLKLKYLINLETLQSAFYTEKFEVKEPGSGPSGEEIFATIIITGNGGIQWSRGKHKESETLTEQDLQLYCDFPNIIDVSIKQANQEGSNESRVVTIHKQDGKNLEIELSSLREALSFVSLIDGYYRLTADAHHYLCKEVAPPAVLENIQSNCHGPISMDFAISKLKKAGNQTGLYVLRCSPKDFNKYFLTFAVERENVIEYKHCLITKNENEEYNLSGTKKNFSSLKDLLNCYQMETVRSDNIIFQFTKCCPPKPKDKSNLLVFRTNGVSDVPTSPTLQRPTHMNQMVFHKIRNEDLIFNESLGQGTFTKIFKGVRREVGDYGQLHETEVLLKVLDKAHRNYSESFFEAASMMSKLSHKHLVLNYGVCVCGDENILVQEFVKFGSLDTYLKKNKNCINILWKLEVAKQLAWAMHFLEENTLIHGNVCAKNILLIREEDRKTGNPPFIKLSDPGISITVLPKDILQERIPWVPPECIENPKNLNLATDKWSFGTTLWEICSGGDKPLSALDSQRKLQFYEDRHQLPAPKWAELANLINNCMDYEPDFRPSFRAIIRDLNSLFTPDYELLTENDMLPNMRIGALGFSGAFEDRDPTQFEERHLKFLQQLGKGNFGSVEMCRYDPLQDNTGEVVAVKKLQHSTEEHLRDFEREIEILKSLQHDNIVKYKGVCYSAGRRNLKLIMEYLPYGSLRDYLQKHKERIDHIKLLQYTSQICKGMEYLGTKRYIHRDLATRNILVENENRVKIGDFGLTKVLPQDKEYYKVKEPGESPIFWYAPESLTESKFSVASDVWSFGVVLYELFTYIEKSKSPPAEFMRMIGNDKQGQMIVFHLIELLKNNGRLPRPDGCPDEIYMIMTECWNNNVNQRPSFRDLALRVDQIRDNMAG

[16] = biological target: FGFR1 (UniProt P11362); assay: as above
Sequence of FGFR1 (P11362 whole entry, looked up, the tested form may be a part): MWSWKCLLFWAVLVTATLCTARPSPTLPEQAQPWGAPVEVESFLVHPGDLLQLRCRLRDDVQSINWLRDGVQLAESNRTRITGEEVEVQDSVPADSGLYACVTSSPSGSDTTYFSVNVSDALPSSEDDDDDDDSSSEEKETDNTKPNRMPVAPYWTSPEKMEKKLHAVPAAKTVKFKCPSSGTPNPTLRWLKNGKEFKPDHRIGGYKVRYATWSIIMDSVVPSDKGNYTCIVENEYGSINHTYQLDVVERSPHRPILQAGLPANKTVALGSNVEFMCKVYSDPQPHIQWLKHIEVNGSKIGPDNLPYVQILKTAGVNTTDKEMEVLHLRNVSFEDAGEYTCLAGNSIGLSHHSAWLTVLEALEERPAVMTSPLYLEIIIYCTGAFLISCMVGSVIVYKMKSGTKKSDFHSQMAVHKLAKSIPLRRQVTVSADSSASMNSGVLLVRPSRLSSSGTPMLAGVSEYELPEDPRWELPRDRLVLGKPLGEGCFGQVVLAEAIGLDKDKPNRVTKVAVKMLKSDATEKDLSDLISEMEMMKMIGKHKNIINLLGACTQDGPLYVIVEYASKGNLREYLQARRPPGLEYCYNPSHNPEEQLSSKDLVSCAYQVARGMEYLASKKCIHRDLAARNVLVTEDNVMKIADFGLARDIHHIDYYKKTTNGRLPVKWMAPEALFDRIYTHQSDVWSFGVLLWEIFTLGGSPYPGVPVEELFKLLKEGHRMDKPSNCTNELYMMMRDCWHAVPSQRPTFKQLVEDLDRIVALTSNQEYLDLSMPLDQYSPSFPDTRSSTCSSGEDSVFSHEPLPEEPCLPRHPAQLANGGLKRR
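For SH2 binding enrichment of the phosphorylated peptide, bacterial display in this document: peptide library displayed on the E. coli surface as eCPX fusions, selected cells deep-sequenced, score is each peptide's frequency after selection divided by its frequency in the input.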
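For phosphorylation enrichment, bacterial display in this document: 11-residue human phosphosite peptides and single-mutation variants displayed on the E. coli surface, counted by deep sequencing, each peptide's frequency after selection divided by its frequency in the unselected input library; frequency after pTyr selection over input frequency; kinase dosed for 20-30% of maximal phosphorylation in three min.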

Sequence of Grb2 SH2 (P62993 whole entry, looked up): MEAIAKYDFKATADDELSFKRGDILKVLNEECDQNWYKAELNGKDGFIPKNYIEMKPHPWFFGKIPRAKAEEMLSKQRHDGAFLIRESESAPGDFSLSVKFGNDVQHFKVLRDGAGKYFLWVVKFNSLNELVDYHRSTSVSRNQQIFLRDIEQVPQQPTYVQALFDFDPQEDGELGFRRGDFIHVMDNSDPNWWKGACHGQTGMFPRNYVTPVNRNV

Sequence | SH2 binding enrichment [1] | SH2 binding enrichment [2] | SH2 binding enrichment [3] | phosphorylation enrichment [4] | phosphorylation enrichment [5] | phosphorylation enrichment [6] | phosphorylation enrichment [7] | phosphorylation enrichment [8] | phosphorylation enrichment [9] | phosphorylation enrichment [10] | phosphorylation enrichment [11] | phosphorylation enrichment [12] | phosphorylation enrichment [13] | phosphorylation enrichment [14] | phosphorylation enrichment [15] | phosphorylation enrichment [16]
PLYSKYWPNHI [GREB1L_Y1560_R1558S] | 0.732 | 1.2 | 0.608 | 11.8 | 20.1 | 29.7 | 3.06 | 12.3 | 1.27 | 2.47 | 22.6 | 19.1 | 19.9 | 17.4 | 6.37 | 5.11
SISLRYEGRVF [ABL1_Y167_YF] | 0.926 | 1.05 | 0.68 | 0.372 | 0.384 | 0.703 | 0.838 | 0.686 | 1.26 | 1.25 | 0.696 | 0.636 | 0.438 | 0.507 | 0.918 | 0.524
FAGRDYSLDEF [MYOF_Y1705_G1701A_YF] | 0.712 | 0.699 | 0.69 | 0.572 | 0.45 | 0.567 | 0.708 | 0.451 | 0.969 | 0.986 | 0.639 | 0.433 | 0.454 | 0.51 | 1.01 | 0.497
INQGPYENHSV [ATP6V1B1_Y462_R465H] | 0.777 | 4.77 | 2.07 | 0.524 | 0.55 | 0.639 | 0.524 | 9.94 | 0.804 | 0.646 | 0.54 | 0.436 | 0.471 | 0.4 | 0.68 | 0.441
PVKSEYPSIKL [NPC2_Y119] | 0.592 | 0.752 | 0.68 | 0.364 | 0.465 | 0.562 | 0.623 | 0.433 | 0.822 | 0.456 | 0.654 | 0.358 | 0.509 | 0.515 | 0.557 | 0.579
RGLQVYHRRNA [LRP2_Y2010] | 0.604 | 0.674 | 0.486 | 1.49 | 1.2 | 0.86 | 0.889 | 0.803 | 1.05 | 1.41 | 0.957 | 0.755 | 0.964 | 0.783 | 1.2 | 1.1
EPTPGYEVSQR [TSC2_Y1788_G1791S] | 0.629 | 0.858 | 0.56 | 0.383 | 0.427 | 0.549 | 0.641 | 0.447 | 0.888 | 0.83 | 0.615 | 0.434 | 0.437 | 0.441 | 0.706 | 0.46
NFYEYYVDDPP [GCHFR_Y48] | 0.505 | 0.709 | 0.679 | 4.3 | 6.46 | 6.26 | 4.76 | 6.58 | 1.29 | 2.53 | 0.877 | 5.35 | 5.21 | 2.65 | 1.23 | 5.94
LKLKAYRFSIS [LCT_Y974_V971L] | 0.763 | 0.673 | 0.502 | 1.55 | 1.15 | 0.948 | 1.21 | 1.26 | 1.96 | 1.76 | 2.51 | 0.883 | 0.746 | 0.882 | 2.76 | 0.845
VDTFWYKFLKP [EPM2A_Y86_R91P] | 0.626 | 0.601 | 0.388 | 0.43 | 0.471 | 0.533 | 0.808 | 0.515 | 1.28 | 0.982 | 0.694 | 0.644 | 0.388 | 0.426 | 1.05 | 0.463
PVGVLYKVKVY [PTS_Y128] | 0.584 | 0.73 | 0.398 | 0.451 | 0.669 | 0.877 | 1.27 | 0.699 | 1.79 | 1.28 | 0.914 | 1.06 | 0.652 | 0.687 | 1.52 | 0.337
AIIGIYNLRDD [CDH23_Y2949_I2950N] | 0.951 | 1.14 | 0.805 | 5.84 | 0.573 | 0.437 | 0.599 | 0.45 | 1 | 0.821 | 0.691 | 0.481 | 6.82 | 5.28 | 0.795 | 0.478
RLEKEYFDQHF [NPC1_Y394] | 0.821 | 0.865 | 0.604 | 0.571 | 0.631 | 0.707 | 0.959 | 0.5 | 1.29 | 1.13 | 0.795 | 0.717 | 0.341 | 0.665 | 1.44 | 1.39
IETGKYEILTE | 0.609 | 0.746 | 10.6 | 0.495 | 0.585 | 0.601 | 0.78 | 0.703 | 1.34 | 1.18 | 0.807 | 0.684 | 0.429 | 0.478 | 1.14 | 0.519
KDAGDYKFKAK [LRIT3_Y326_C328Y_YF] | 0.853 | 0.792 | 0.504 | 0.305 | 0.443 | 0.259 | 0.362 | 0.278 | 0.613 | 0.406 | 0.338 | 0.345 | 0.322 | 0.38 | 0.392 | 0.421
GRPLSYWLTGC [LYZL6_Y140_F139S] | 0.681 | 0.763 | 0.464 | 0.397 | 0.411 | 0.664 | 0.793 | 0.556 | 1.33 | 1.12 | 0.846 | 0.686 | 0.527 | 0.503 | 1.24 | 0.535
TVFSDYLHPQY [CCPG1_Y569] | 0.76 | 0.88 | 0.541 | 0.498 | 0.417 | 0.505 | 0.723 | 0.398 | 0.944 | 2.34 | 0.785 | 0.727 | 0.43 | 0.457 | 1.36 | 0.699
